The values below come from CN116284408A (SUNSHINE GUOJIAN PHARMACEUTICAL SHANGHAI CO LTD, dated 2023).

Assay [1] concerns the target T1, 人MUC17-Fc蛋白 (human, UniProt Q685J3 4131-4390).
T1 construct: range 4131-4390; No linker is described; also called MUC17抗原; not shown: C-terminal Fc tag
Kind of assay: ELISA, MUC17-Fc coated, murine antibody titrated. On the technique in general: An ELISA detects its analyte on a solid surface through an enzyme-linked reagent.

For assay [2], the target named is MUC17 on LS174T colorectal cancer cells (human, UniProt Q685J3 26-4493). As to the kind of experiment: flow cytometry on LS174T cells, murine antibody titrated. Set-up: Top: unit not given here. (In general: Flow cytometry measures light scatter and fluorescence of single cells or particles in a stream.)
For assay [3], the target named is T2, MUC17 on LS174T colorectal cancer cells (human, UniProt Q685J3 26-4493). As to the kind of experiment: flow cytometry on LS174T cells.
Assay [4] deals with T1, 人MUC17-Fc蛋白. Kind of assay: ELISA, coated MUC17 antigen, antibody titrated.
Assay [5] concerns the target T1, 人MUC17-Fc蛋白. As to the kind of experiment: ELISA, coated MUC17 antigen, chimeric antibody titrated.
The target in assay [6] is T2, MUC17 on LS174T colorectal cancer cells. As to the kind of experiment: flow cytometry on LS174T cells, chimeric antibody titrated.
Assay [7] shares this target. As to the kind of experiment: flow cytometry on LS174T cells, murine antibody titrated. Set-up: Top: unit not given here. The source holds these as a separate data set.

B1: 15D10 (antibody, V domains shown)
VH: QVQLQQPGAELVKPGASVKMSCKASGYTFTTYWMHWVKQRSGQGLEWIGVIDPSDSYTRYNQKFKDKATLTVDTSSSTAYMHLTSLTSEDSAVYYCTRSGIGNSFIMDYWGQGTSVTVSS
VL: QVVLTQSPAIMPAFPGEKVTISCSASSSVIYMFWYQQKPGSSPKPWIYRTSNLASGVPARFTGSGSGTSYSLTISSMEAEDAATYYCQQYHSYPLTFGVGTKLELK
As usually defined, the EC50 is the concentration giving half of the maximal effect. In the assay with 人MUC17-Fc蛋白 [1], B1 returned an EC50 of 0.0317 µg/mL and a Top of 2.79 OD450. In assay [2], this molecule registered a concentration giving a half-maximal response (EC50) of 3.43 µg/mL and a Top of 382.

B2: 8H2 (antibody, V domains shown)
VH: EVNLVESGGGLVKPGGSLKLSCAASGFAFSNYDMSWVRQTPEKRLEWVATISGGGSYTYYPDNVKGRFTISRDNAMNTLYLQMSSLRSEDTALYYCASVNWGFPYWGQGTLVTVSA
VL: DIVMSQSPSSLAVSIGEKVTMSCKSSQSLLYSRNQKNYLAWYQQKPGQSPILLIYWTSTRESGVPDRFTGSGSGTDFTLTISGVKAEDLAVYYCQQYYTSPWTFGGGTRLEIK
Turning to B2, in the assay with 人MUC17-Fc蛋白 [1], a half-maximal effect (EC50) was put at 0.0556 µg/mL and the Top turned out to be 2.74 OD450. In assay [2], this molecule showed an EC50 of 0.164 µg/mL and a Top of 445.

B3: hu-27A3 (antibody, human IgG1, kappa, V domains shown)
VH: QVQLVQSGAEVKKPGASVKVSCKASGYSFTIYWMHWVRQAPGQGLEWIGMSHPSDSESRLNQKFKDRATLTVDKSTSTAYMELSSLRSEDTAVYYCSRPYYGSSAWFADWGQGTLVTVSA
VL: DIVMTQSPDSLAVSLGERATINCKSSQSLLNSSNQKNYLAWYQQKPGQSPKLLIYFASTRESGVPDRFSGSGSGTDFTLTISSLQAEDVAVYYCQQHYSFPLTFGAGTKLELRR
notes: Humanized IgG1/kappa, made in HEK-293E cells; also called 27A3人源化抗体; 人源化后的27A3
Turning to B3, the half-maximal effective concentration (EC50) in assay [3] came to 0.03 nM; in the assay with 人MUC17-Fc蛋白 [4] it was 0.0766 nM.

B4: hu-19E11 (antibody, human IgG1, kappa, V domains shown)
VH: QVQLVQSGAEVKKPGASVKVSCKASGFSFTGYNMNWVRQAPGQSLEWIGNIDPYYGGTTYNQKFKGRATLTVDISISTAYMELSRLRSDDTAVYFCARSVTTVGYPMDYWGQGTSVTVSS
VL: DIVMTQSPDSLAVSLGERATINCKSSQSLLNSYNHKNCLAWYQQKPGQSPKLLISFASARESGVPDRFSGSGSGTDFTLTISSLQAEDVAVYFCHQHYTSPLTFGAGTKLELKR
notes: Humanized IgG1/kappa, made in HEK-293E cells; also called 19E11人源化抗体; 人源化后的19E11
B4: the EC50 in assay [3] was 0.085 nM; with 人MUC17-Fc蛋白 [4], 0.131 nM.

B5: 56E8 (antibody, V domains shown)
VH: QVQLKESGPGLVAPSQSLSITCTVSGFSLTAYGVHWVRQPPGKGLEWLGGIWAGGSTKSNSALMSSLSISKDNSKSQVFLKMNSLQTDDSAMYYCARALFYGYFDVWGAGTTVTVSS
VL: DIVMTQSQKFMSTSVGDRVSVTCKASQSVDTNVAWYQQRPGQSPEALIFSASYRYSGVPDRFTGSGSGTDFTLTISNVQSEDLAEYFCQQYNVYPYTFGGGTNLEIK
With B5, in the assay with 人MUC17-Fc蛋白 [1], the EC50 was 0.0276 µg/mL and the Top was found to be 1.97 OD450. In assay [2], this molecule showed an EC50 of 0.11 µg/mL and a Top of 296.

B6: 11C8 (antibody, V domains shown)
VH: QVQLKESGPGLVAPSQSLSITCTVSGFSLTAYGVHWVRQPPGKGLEWLGGIWAGGSTQSNSALMSRLSISKDSSKSQVFLRMNSLQTDDSAMYYCARALFYGNFDVWGAGTTVTVSS
VL: DIVMTQSQKFMSTSVGDRVSVTCKASQSVDTSVAWYQQRPGQSPEALIFSASYRYSGVPDRFTGSGSGTDFTLTINNVQSEDLAEYFCQQYNSYPYTFGGGTNLEIK
Consider B6, for which, in the assay with 人MUC17-Fc蛋白 [1], a half-maximal effect (EC50) was put at 0.108 µg/mL and the Top was 2.25 OD450. In assay [2], a half-maximal response (EC50) required 0.87 µg/mL and the Top is 469.

B7: 50A5 (antibody, V domains shown)
VH: QVQLKESGPGLVAPSQSLSITCTVSGFSLTAYGVHWVRQPPGKGLEWLGGIWAGGNTQSHSALMSRLTISKDISKSQVFLRMNSLQTDDSAMYYCARALFYGNFDVWGAGTTVTVSS
VL: DIVMTQSQRFMSTSVGDRVSVTCKASQSVDTSVAWYQQRPGQSPEALIFSASYRYSGVPDRFTGSGSGTDFTLTISNVQSEDLAEYFCQQYNSYPYTFGGGTNLEIK
B7: in the assay with 人MUC17-Fc蛋白 [1], the EC50 stood at 0.0813 µg/mL and the Top was 2.64 OD450. In assay [2], this molecule came in with an EC50 of 0.542 µg/mL and a Top of 500.

B8: 23F6 (antibody, V domains shown)
VH: QVQLKESGPGLVAPSQSLSITCTVSGFSLTAYGVHWVRQPPGKGLEWLGGIWAGGNTQSHSALMSRVSISKDISKRQVFLKMDRLQTDDSAIYYCARALFYGNFDVWGAGTTVTVSS
VL: DIVMTQSQRFMSTSVGDRVSVTCKASQSVDTSVAWYQQRPGQSPEALIFSASYRYSGVPDRFTGSGSGTDFTLTISNVQSEDLAEYFCQQYNSYPYTFGGGTNLEMR
For the molecule B8, the results for the EC50 (with 人MUC17-Fc蛋白 [1]; in assay [2]) were 0.0623 µg/mL and 0.395 µg/mL, respectively. Besides, the Top is 2.88 OD450 with 人MUC17-Fc蛋白 [1] and 460 in assay [2].

B9: ch-27A3 (antibody, human IgG1, kappa, V domains shown)
VH: QVQLQQPGAELVRPGASVKLSCKASGYSFTIYWMHWVKQRPGQGLEWIGMSHPSDSESRLNQKFKDKATLTVDKSSSTAYMQLSSPTSEDSAVYYCSRPYYGSSAWFADWGQGTLVTVSA
VL: DIVMTQSPSSLAMSVGQKVTMSCKSSQSLLNSSNQKNYLAWYQQKPGQSPKLLIYFASTRESGVPDRFIGSGSGTDFTLSISSVQAEDLADYFCQQHYSFPLTFGAGTKLELRR
notes: also called 嵌合抗体ch-27A3
On to B9, for which the EC50 with 人MUC17-Fc蛋白 [4] amounted to 0.0785 nM; in the assay with 人MUC17-Fc蛋白 [5], 0.0785 nM; in assay [6], 0.0435 nM.

B10: 27A3 (antibody, V domains shown)
VH: QVQLQQPGAELVRPGASVKLSCKASGYSFTIYWMHWVKQRPGQGLEWIGMSHPSDSESRLNQKFKDKATLTVDKSSSTAYMQLSSPTSEDSAVYYCSRPYYGSSAWFADWGQGTLVTVSA
VL: DIVMTQSPSSLAMSVGQKVTMSCKSSQSLLNSSNQKNYLAWYQQKPGQSPKLLIYFASTRESGVPDRFIGSGSGTDFTLSISSVQAEDLADYFCQQHYSFPLTFGAGTKLELR
notes: Mouse monoclonal antibody from a hybridoma, purified on Protein G; also called 鼠源抗体27A3; 杂交瘤抗体27A3
Take B10: the EC50 was found to be 0.0202 µg/mL in the assay with 人MUC17-Fc蛋白 [1] and 0.00656 µg/mL in assay [7].

B11: 51E12 (antibody, V domains shown)
VH: QVQLQQSGPELVKPGASVKISCKVSGNAFSLSWMNWVKQRPGQGLEWIGRIYPGDGDSNYNGKFKGKATLTADKSSSTVFMQLSSLTSVDSAVYFCANYYGSSSWFVYWGQGTLVTVSA
VL: DVVMTQTPLSLPVSLGDQASISCRSSQSLVHSYGNTYLHWYLQKPGQSPKLLIYKVSNRFSGVPDRFSGSGSGTDFTLKISRVETEDLGVYFCSQSTHFPWTFGGGTKLEIK
As to B11, in the assay with 人MUC17-Fc蛋白 [1], it took 0.0372 µg/mL to reach a half-maximal effect (EC50) and the Top is 2.88 OD450. In assay [2], this molecule displayed an EC50 of 0.0472 µg/mL and a Top of 878.

B12: 45D1 (antibody, V domains shown)
VH: EMQLVESGGDLVKPGGSLKLSCAVSGFTFSTYDMSWIRQTPDKRLEWVATISSGGSYTYYPDSVKGRFTISRDNAKNTLYLQMSSLQSEDTAIYYCASLNWGFDHWGQGTTLTVSS
VL: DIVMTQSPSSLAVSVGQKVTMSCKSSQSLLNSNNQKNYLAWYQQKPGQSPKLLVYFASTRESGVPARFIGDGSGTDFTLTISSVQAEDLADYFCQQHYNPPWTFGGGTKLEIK
For B12, the figures for the EC50 (with 人MUC17-Fc蛋白 [1]; in assay [2]) were 0.036 µg/mL and 0.273 µg/mL, respectively. Moreover, the results for the Top (in the assay with 人MUC17-Fc蛋白 [1]; in assay [2]) were 2.87 OD450 and 457, respectively.

B13: ch-19E11 (antibody, human IgG1, kappa, V domains shown)
VH: EVQLQQSGPELEKPGASVKISCKASGFSFTGYNMNWVKQSNGKSLEWIGNIDPYYGGTTYNQKFKGKATLTVDISSSTAHMELKSLTSEDSAVYFCARSVTTVGYPMDYWGQGTSVTVSS
VL: DIVMTQSPSSLAMSVGQKVTMNCKSSQSLLNSYNHKNCLAWYQQKPGQSPKLLISFASARESGVPDRFIGSGSGTDFTLTISSVQAEDLADYFCHQHYTSPLTFGAGTKLELKR
notes: also called 嵌合抗体ch-19E11
For the molecule B13, the EC50 with 人MUC17-Fc蛋白 [4] and in the assay with 人MUC17-Fc蛋白 [5] was 0.14 nM each time.

B14: 19E11 (antibody, V domains shown)
VH: EVQLQQSGPELEKPGASVKISCKASGFSFTGYNMNWVKQSNGKSLEWIGNIDPYYGGTTYNQKFKGKATLTVDISSSTAHMELKSLTSEDSAVYFCARSVTTVGYPMDYWGQGTSVTVSS
VL: DIVMTQSPSSLAMSVGQKVTMNCKSSQSLLNSYNHKNCLAWYQQKPGQSPKLLISFASARESGVPDRFIGSGSGTDFTLTISSVQAEDLADYFCHQHYTSPLTFGAGTKLELK
notes: Mouse monoclonal antibody from a hybridoma, purified on Protein G; also called 鼠源抗体19E11; 杂交瘤抗体19E11
As to B14, the EC50 is 0.0376 µg/mL with 人MUC17-Fc蛋白 [1] and 0.024 µg/mL in assay [7].
